Like-named read-outs stand apart in the source and are kept apart here. Where no end group is shown, it is not given here. [ ]: non-standard residue; d: D form. ΔPro = O=C(O)[C@@H]1C=CCN1; Aze = O=C(O)[C@@H]1CCN1

Experiment in all cases: cell-based or functional assay
The target of assay [1] is EGLN1.
Assay [2] addresses EGLN2.
Assay [3] has as its target EGLN3.
The target of assay [4] is EGLN1. This is another data set of the same source.
For assay [5], the target named is EGLN2. This is another data set of the same source.
Assay [6] deals with EGLN3. This is another data set of the same source.

Turning to DTDLDLEMLAPYIPMDDDFQ [Control peptide DTD20, DTDLDLEMLApYIPMDDDFQ], the “Activity (%)*” value in assay [1] was 100%; in assay [2], 100%; in assay [3], 119%; in assay [4], 100%; in assay [5], 100%. Also, the “Activity (%)” value in assay [6] worked out at 119%.

In the case of DTDLDTEAFA[Aze]YIPADDDFQ [DTDLDTEAFA8YIPADDDFQ], the “Activity (%)*” value came to 17.4% in assay [4] and 8.9% in assay [5]. Further, the “Activity (%)” value in assay [6] worked out at 18.7%.

Turning to DTDLDAEAIA[Aze]YIPADDDFQ [DTDLDAEAIA8YIPADDDFQ], the “Activity (%)*” value in assay [4] was found to be 6.68%; in assay [5], 1.88%. Also, the “Activity (%)” value in assay [6] worked out at 9.72%.

In the case of DTDLDLEALA[Aze]YIPADDDFQ [DTDLDLEALA8YIPADDDFQ], the “Activity (%)*” value turned out to be 78.9% in assay [4] and 62% in assay [5]. In addition, the “Activity (%)” value in assay [6] was 169%.

As for DTDLDVEAVA[Aze]YIPADDDFQ [DTDLDVEAVA8YIPADDDFQ], the “Activity (%)” value in assay [6] turned out to be 20.6%.

In the case of DTDLDTEAVA[Aze]YIPADDDFQ [DTDLDTEAVA8YIPADDDFQ], the “Activity (%)” value in assay [6] worked out at 10.3%.

For DTDLDAEATA[Aze]YIPADDDFQ [DTDLDAEATA8YIPADDDFQ], the “Activity (%)*” value in assay [4] turned out to be 7.6%; in assay [5] it was 1.55%.

For DTDLDLEALA[b‑thioproline]YIPADDDFQ [DTDLDLEALA5YIPADDDFQ], the “Activity (%)*” value in assay [4] is 8.93%; in assay [5] it was 7.9%. Besides, the “Activity (%)” value in assay [6] was found to be 11.1%.

On to DTDLDVEAIA[Aze]YIPADDDFQ [DTDLDVEAIA8YIPADDDFQ], for which the “Activity (%)*” value worked out at 7.96% in assay [4] and 2.81% in assay [5]. In addition, the “Activity (%)” value in assay [6] was 14.8%.

Turning to DTDLDVEAYA[Aze]YIPADDDFQ [DTDLDVEAYA8YIPADDDFQ], the “Activity (%)*” value in assay [4] was determined as 32.3%; in assay [5], 27.2%. Also, in assay [6], the “Activity (%)” value was 33.5%.

In the case of DTDLDIEAIA[Aze]YIPADDDFQ [DTDLDIEAIA8YIPADDDFQ], the “Activity (%)*” value in assay [4] was 18.3%; in assay [5], 10%. The “Activity (%)” value in assay [6] is 31.2%.

As to DTDLDTEAYA[Aze]YIPADDDFQ [DTDLDTEAYA8YIPADDDFQ], the results for the “Activity (%)*” value in assay [4] and in assay [5] were 25.1% and 17%, respectively. Further, the “Activity (%)” value in assay [6] was 29.7%.

Turning to DTDLDTEALA[Aze]YIPADDDFQ [DTDLDTEALA8YIPADDDFQ], the “Activity (%)*” value amounted to 11.4% in assay [4] and 8.52% in assay [5]. Moreover, in assay [6], the “Activity (%)” value worked out at 80.1%.

On to DTDLDLEALA[ΔPro]YIPADDDFQ [DTDLDLEALA4YIPADDDFQ], for which the “Activity (%)*” value came to 124% in assay [4] and 173% in assay [5]. For the same molecule, in assay [6], the “Activity (%)” value came out at 74.4%.

For DTDLDAEAAA[Aze]YIPADDDFQ [DTDLDAEAAA8YIPADDDFQ], the results for the “Activity (%)*” value in assay [4] and in assay [5] were 10.3% and 4.16%, respectively.

Regarding DTDLDVEAFA[Aze]YIPADDDFQ [DTDLDVEAFA8YIPADDDFQ], the “Activity (%)*” value in assay [4] was found to be 21.2%; in assay [5], 13.9%. Besides, in assay [6], the “Activity (%)” value was 24.5%.

For the molecule DTDLDAEAVA[Aze]YIPADDDFQ [DTDLDAEAVA8YIPADDDFQ], the “Activity (%)*” value was 10% in assay [4] and 3.36% in assay [5]. Moreover, the “Activity (%)” value in assay [6] was 17.2%.

As for DTDLDIEAVA[Aze]YIPADDDFQ [DTDLDIEAVA8YIPADDDFQ], the “Activity (%)*” value was 6.35% in assay [4] and 1.96% in assay [5]. Moreover, the “Activity (%)” value in assay [6] was determined as 18.8%.

Values taken from patent US20080113383A1 (FIBRO GEN, published 2008).
